The test concerns the target GST-Shp2 SH2 T73D/S189D. Put plainly: pull-down; glutathione-Sepharose bead-bound bacterial GST-Shp2 SH2 proteins incubated with lysates of HEK293T cells transfected with the ligand and constitutively active Src; 1 h at 4 °C; bound proteins immunoblotted for phosphotyrosine (4G10) and GST; band intensities quantified with ImageJ. A general note: A western blot detects proteins with antibodies after separation by electrophoresis.

“Venus-GAB2, tyrosine-phosphorylated (from UniProt Q9UQC2 1-676) (natural protein)”: the fold reduction of binding against the wild-type SH2 domains worked out at 2.7 fold.

“GFP-PKD1, tyrosine-phosphorylated (from UniProt Q15139 1-912) (enzyme)” came in with a fold reduction of binding against the wild-type SH2 domains of 1.7 fold.

Substance “Venus-GAB1, tyrosine-phosphorylated (from UniProt Q13480 1-694) (natural protein)” displayed a fold reduction of binding against the wild-type SH2 domains of 5.7 fold.

Values taken from article PMC4424342.
